The source of these data is patent publication US20040092712A1 (published 2004).

The target of one assay is F1024-1-3 antibody. Description: competition ELISA: 4-fold diluted serum mixed with 1 µg/mL peroxidase-labeled F1024-1-3 on immobilised human sCD14(1-356). In general terms: An ELISA detects its analyte on a solid surface through an enzyme-linked reagent.
Another assay addresses T1, sCD14(1-307)S286C (human, UniProt P08571 20-326).
T1 construct: CD14 mutant polypeptide expressed in COS-1 cells; also called CD14(s286C)
T1 sequence: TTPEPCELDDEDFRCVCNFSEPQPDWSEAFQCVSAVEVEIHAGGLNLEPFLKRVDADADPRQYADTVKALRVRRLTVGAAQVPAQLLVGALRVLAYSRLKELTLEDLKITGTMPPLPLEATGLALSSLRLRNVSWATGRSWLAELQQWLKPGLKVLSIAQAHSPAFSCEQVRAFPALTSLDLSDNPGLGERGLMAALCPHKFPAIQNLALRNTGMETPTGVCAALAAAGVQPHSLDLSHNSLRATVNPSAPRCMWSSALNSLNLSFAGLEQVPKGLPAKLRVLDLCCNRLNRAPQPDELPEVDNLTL
Description: BIACORE 3000, injected over immobilised sCD14(1-356), no LPS. In general terms: SPR reads the build-up and loss of mass on a sensor chip optically.

B1: rhesus monkey soluble type CD14 (serum) (receptor)
chain: TTPEPCELDDEDFRCVCNFSEPHPDWSEAFQCVSAVEVEIRVGGLSLEPFLTRVDPDADPRQYADTIKALRVRRLTVGAAQVPAQLLVGALRVLAYSRLQELTLEDLEITGTMPPLPLEATGLALSSLRLHNVSWATGRSWLAELQQWLKPGLKVLSIAQAHSPAFSCEQVRAFPALTSLDLSDNPGLGERGLIAALCPHKFPALQNLALRNTGMETPTGVCAALAAAGVQPHSLDLSHNSLRATANPSAPRCMWSSALNSLNLSFAGLEQVPKGLPAKLRVLDLSCNRLNRRPRPDELPQVDNLALDGNPFLVPGTALPQEGSMN
As to B1, in the assay with F1024-1-3 antibody, the inhibition ratio of binding of F1024-1-3 antibody to human CD14 stood at 44%.

B2: crab-eating macaque soluble type CD14 (serum) (receptor)
chain: TTPEPCELDDEDFRCVCNFSEPHPDWSEAFQCVSAVEVEIRVGGLSLEPFLTRVDPDADPRQYADTIKALRVRRLTVGAAQVPAQLLVGALRVLAYSRLQELTLEDLEITGTMPPLPLEATGLALSSLRLHNVSWATGRSWLAELQQWLKPGLKVLSIAQAHSPAFSCEQVRAFPALTSLDLSDNPGLGERGLIAALCPHKFPALQNLALRNTGMETPTGVCAALAAAGVQPHSLDLSHNSLRATANPSAPRCMWSSALNSLNLSFAGLEQVPKGLPAKLRVLDLSCNRLNRRPRPDELPQVDNLALDGNPFLVPGTALPQEGSMN
As to B2, the inhibition ratio of binding of F1024-1-3 antibody to human CD14 with F1024-1-3 antibody stood at 57%.

B3: human serum-derived soluble type CD14 (receptor)
chain: TTPEPCELDDEDFRCVCNFSEPQPDWSEAFQCVSAVEVEIHAGGLNLEPFLKRVDADADPRQYADTVKALRVRRLTVGAAQVPAQLLVGALRVLAYSRLKELTLEDLKITGTMPPLPLEATGLALSSLRLRNVSWATGRSWLAELQQWLKPGLKVLSIAQAHSPAFSCEQVRAFPALTSLDLSDNPGLGERGLMAALCPHKFPAIQNLALRNTGMETPTGVCAALAAAGVQPHSLDLSHNSLRATVNPSAPRCMWSSALNSLNLSFAGLEQVPKGLPAKLRVLDLSCNRLNRAPQPDELPEVDNLTLDGNPFLVPGTALPHEGSMNSGVVPACARSTLSVGVSGTLVL
Consider B3, for which the inhibition ratio of binding of F1024-1-3 antibody to human CD14 in the assay with F1024-1-3 antibody came to 83%.

B4: sCD14(1-356) (receptor)
chain: TTPEPCELDDEDFRCVCNFSEPQPDWSEAFQCVSAVEVEIHAGGLNLEPFLKRVDADADPRQYADTVKALRVRRLTVGAAQVPAQLLVGALRVLAYSRLKELTLEDLKITGTMPPLPLEATGLALSSLRLRNVSWATGRSWLAELQQWLKPGLKVLSIAQAHSPAFSCEQVRAFPALTSLDLSDNPGLGERGLMAALCPHKFPAIQNLALRNTGMETPTGVCAALAAAGVQPHSLDLSHNSLRATVNPSAPRCMWSSALNSLNLSFAGLEQVPKGLPAKLRVLDLSCNRLNRAPQPDELPEVDNLTLDGNPFLVPGTALPHEGSMQSVVVPACARSTLSVGVSGTLVLLQGARGFA
notes: Expressed from pM1656 in COS-1 cells; GPI-anchoring sites Asn326 and Gly328 replaced by Gln and Val to give a soluble protein; In the BIACORE experiments it stood as a complex with LPS or FITC-LPS; also called full-length type human soluble CD14; recombinant soluble type CD14
For the molecule B4, the binding result with sCD14(1-307)S286C is recorded as “no binding (tested: 10 µg/mL)”.

B5: rabbit soluble type CD14 (rabbit serum) (receptor, rabbit (New Zealand white), UniProt Q28680 18-342, looked up)
chain: STDTPEPCELDDDDIRCVCNFSDPQPDWSSALQCMPAVQVEMWGGGHSLEQFLRQADLYTDQRRYADVVKALRVRRLTVGAVQVPAPLLLGVLRVLGYSRLKELALEDIEVTGTAPPPPPLEATGPALSTLSLRNVSWPKGGAWLSELQQWLKPGLQVLNIAQAHTLAFSCEQVRTFSALTTLDLSENPGLGERGLVAALCPHKFPALQDLALRNAGMKTLQGVCAALAEAGVQPHHLDLSHNSLRADTQRCIWPSALNSLNLSFTGLQQVPKGLPAKLNVLDLSCNKLNRAPQPGELPKVVNLSLDGNPFLVPGASKLQEDLTN
B5: in the assay with F1024-1-3 antibody, the inhibition ratio of binding of F1024-1-3 antibody to human CD14 stood at 52%.
